From PMC9512822, “Redβ177 annealase structure reveals details of oligomerization and λ Red-mediated homologous DNA recombination” (Nature Communications, 2022) come the findings set out here.

Series [1] concerns the target T1, Redβ177 (Escherichia coli bacteriophage lambda, UniProt P03698 1-177).
T1 sequence: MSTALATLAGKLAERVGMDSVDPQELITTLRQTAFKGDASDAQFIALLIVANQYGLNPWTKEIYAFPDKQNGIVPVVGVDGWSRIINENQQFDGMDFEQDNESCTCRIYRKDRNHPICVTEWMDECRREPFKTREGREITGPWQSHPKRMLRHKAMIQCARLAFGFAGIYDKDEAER
As to the kind of experiment: cryo-EM structure (helical reconstruction, 3.3 Å); 5 mM MgCl2; Redβ177:Oligo 1:Oligo 2 7.7:1:1; 4 bp per monomer; base identity averaged, arbitrary sequence modelled; 20 mM KH2PO4 pH 6.0, 5 mM MgCl2; 30 min at room temperature with each oligo, then dialysis overnight at 4 °C. Conditions: protein: recombinant; tags: C-terminal His6; blunt.

Series [2] concerns the molecule itself. As to the kind of experiment: cryo-EM structure; purified Redβ177 incubated in turn with two complementary 27mer oligonucleotides (molar ratio 7.7:1:1) in 20 mM KH2PO4 pH 6.0, 5 mM MgCl2, room temperature, then dialysed overnight at 4 °C; helical reconstruction of the 1-start left-handed helix, 3.3 Å; a 2-start assembly was seen only in 2D classes.

B1: Oligo 1 + Oligo 2 annealing intermediate (27mer) (dsDNA)
DNA 1: TGCAGCAGCTTTACCATCTGCCGCTGG
DNA 2: CCAGCGGCAGATGGTAAAGCTGCTGCA
Regarding B1, the binding result in series [1] was “binds”.

B2: Redβ177-His6 (N-terminal residues 1-177 of the Redβ annealase of bacteriophage λ) (domain or fragment, bacteriophage lambda (phage λ), UniProt P03698 1-177, looked up)
chain: MSTALATLAGKLAERVGMDSVDPQELITTLRQTAFKGDASDAQFIALLIVANQYGLNPWTKEIYAFPDKQNGIVPVVGVDGWSRIINENQQFDGMDFEQDNESCTCRIYRKDRNHPICVTEWMDECRREPFKTREGREITGPWQSHPKRMLRHKAMIQCARLAFGFAGIYDKDEAER
notes: Redβ (Beta) annealase, product of the bet gene of bacteriophage lambda, UniProtKB P03698, N-terminal residues 1-177 (C-terminally truncated); The molecule forms a helical filament of no fixed number of subunits; Residues 3-169 were modelled, except 133-138; also called Redβ177-6xHis; Redβ N-terminal domain; not shown: His6, C-terminal, kept
As for B2, in series [2], the binding result was “binds”.
